Assay results: article PMC5615192 (mBio, 2017)

B1: unnamed (parent)
chain 1: EATVYLPPVPVSKVVSTDEYVSRTSIYYYAGSSRLLAVGNPYFSIKSPNNNKKVLVPKVSGLQYRVFRVRLPDPNKFGFPDTSFYNPDTQRLVWACVGLEIGRGQPLGVGVSGHPYLNKFDDTETSNRYPAQPGSDNRECLSMDYKQTQLCLIGCKPPTGEHWGKGVACNNNAAATDCPPLELFNSIIEDGDMVDTGFGCMDFGTLQANKSDVPIDICNSTCKYPDYLKMASEPYGDSLFFFLRREQMFVRHFFNRAGKLGEAVPDDLYIKGSGNTAVIQSSAFFPTPSGSIVTSESQLFNKPYWLQRAQGHNNGICWGNQLFVTVVDTTRSTNMTLCTEVTKEGTYKNDNFKEYVRHVEEYDLQFVFQLCKITLTAEIMTYIHTMDSNILEDWQFGLTPPPSASLQDTYRFVTSQAITCQKTAPPKEKEDPLNKYTFWEVNLKEKFSADLDQFPLGRKFLLQSGLKAKPRLKRSAPTTRAPSTKRKKVKK
chain 2: EVQLQQSGAELVRPGALVKLSCKASGFNIKDYYMHWVKQRPEQGLEWIGWIDPENGKTIYDPRFRGKASITADTSSNTAYLQLSSLTSEDAAVYYCATSNYRYDRSFDYWGQGTTLTVSAKTTPPSVYPLAPGCGDTTGSSVTSGCLVKGYFPEPVTVTWNSGSLSSSVHTFPALLQSGLYTMSSSVTVPSSTWPSQTVTCSVAHPASSTTVDKKL
chain 3: DIQMTQSPSSLFASLGGKVTITCKASQDINKYIAWFQHKPGKGPRLLIHYTFTLQPGIPSRFSGSGSGRDYSFSISNLEPEDIATYYCLQYHNLYTFGGGTKLEIKRADAAPTVSIFPPSSEQLTSGGASVVCFLNNFYPKDINVKWKIDGSERQNGVLNSWTDQDSKDSTYSMSSTLTLTKDEYERHNSYTCEATHKTSTSPIVKSFNRNEC
B2: unnamed (parent)
chain 1: B1 chain 2
chain 2: B1 chain 3
chain 3: B1 chain 1

Variants of: B1
Assay: SPR (Biacore)
Conditions: with partner chain of the complex shown; read off a plot
chain 1 S135A was tested, and the Kd was 8.2 -log10, M. chain 1 N137A was tested, and the Kd was 8.2 -log10, M. chain 1 Q132A was tested, and the Kd was 7.9 -log10, M. chain 1 R128A was tested, and the Kd was 6 -log10, M. chain 1 N275A was tested, and the Kd was 6.9 -log10, M.

Variants of: B2
Assay: indirect ELISA
Conditions: with partner chain of the complex shown
For chain 3 S135A, the EC50 was 0.0132 µg/mL. For chain 3 N275A, the EC50 was 0.0455 µg/mL. In the case of chain 3 N137A, the EC50 is reported as 0.011 µg/mL. chain 3 Q132A gave an EC50 of 0.0152 µg/mL. Variant chain 3 D121A has an EC50 of 0.0784 µg/mL.
